Reference: the DeepSol protein solubility set

Test: soluble on expression in E. coli; label from the status in PepcDB or PDB records

Row | Sequence | soluble on expression in E. coli
1 | MSLNFDWIKTRSDFDDDKPAVIDHAKQTSWTYQQLNARADNMAHYLTSQGVKKGDVIGIFAPNDIAILDLLFACFKTGAVFLPLNWRLNPKEIAAIVEDAQLKLLFYAEKHLSSLTDIDQNLLHMDIDVAQYDEIVNPDYHQPFQATPVEPQDLAALIYTSGTTGSPKGVMFSYESFVHNGANLELTYKFNSNYITIVSTPMFHVLGFNDTVLPVLMSGGTLILQRYFNGEELNDMIAQYHPTFIIMIPTMYYSTLRASNFNPENFRAMDYIIQGGSQPLPSIQAAFKQYGINIINGYGLTEAPLVLVNTPENSKRKPMSIGKAVMFVDARILDDNGEEVPTGEIGELAIKAKNVTPGYWNKPAETAKAFHGRYLLTGDLAKMDDDGDIFIIDRKKELIITGGENVLPSEVENALAEHPLVDRCVVVGYDHPKYGESIAAAIILREDEPHYAEILDQHMRSRLAGYKVPRMYVPVTHMPLNSTQKPDKLAIRQMMNDKVSQTLEGHHHHHH | soluble
2 | MSLNFTLHTLNGIKLWLVLLLLSGAINVCRADSPRQTINFNRGWKYCQGDFDHAARPGFDDSEWEKIGLPHSFSTPYFMSKDFYVGYGWYRKAFPVKKEILGKKSFLEFDGVFQEAEIFVNGHLAGTHKGGYTGFSIDISAYLKEGKNLVAVRVNNCWRPDLAPRAGEHVFSGGIYRNVRLVIKPPTYIDWYGTWITTPDLAENKGKSGSVHIRTDVCNASGKTDTYRLLTTVVDAQGKEVSSVSTSQVLPDNATYTFEQQTKEIQAPQLWHPNHPALYKVISSLYHGQELIDRYETAFGFRWFEWTADRGFFLNGEHLYFKGANVHQDHAGWGDAVTETGMRRDIRLVKEAGFDLIRGSHYPHSPAFSQACDEIGMLFWAENAFWGIGGHKGDGYWNASAYPVNESDRAEFENSVKAQLKELIRIHRNHPSIIVWSMSNEPFFTAPETINPMRKLLEETVKLSKQLDPTRPAAVGGAQRPLGEKRIDKLGDIAGYNGDGSYIPEFQQPGMPTVVSEYGSTTADRPGEYDPGWGDLAKNNAQNGFPWRSGQAIWCAFDHGSIAGSALGKMGIIDYFRIPKRAWYWYRNAYKGITPPEWPQEGTPARISLVADRTDNIKADGTDDVMLSITILDASGKPVSNSPAVKLDILSGPGEFPTGTSILFEKESDIRILDGKAAIEFRSYYAGETVIRATSPGLEPAEVKIRFTGSTPYTEAFKVKERPYTRFETPTKTDNLQTFGPNNPTFCSSSANGHSSAFAADGDESTYWQASENDPERSWTLDTEKGLSIRHIRIAFPDLTPYQYKVEVSMDREHWSLIPDQTNNKQNENIRMIQVVPGIQGRFVRISFTGEKAAITDVQVIGTVIDEGHHHHHH | soluble
3 | MSLNILILHRVRYVDVLYHQSIDHELHNVYYIGIEENLNEIPADLRCTKIVRPGVDAVHKEVLEQIENLDVCFDHVVSINEFELIEAALIREKLNIAGPKVADVEKVRNKIVMKHCVGAVNIRIPQYMSLSDFMNSERLAIPPSSQVILKPLDGASSVDVVKFDSQKVLEQALIDRTTGIVALDKETPERIENFEVEEFVSGPVLHIDGMIRNGQIEMIVVSQYINTLLDFANGYPAGSVQLETTEEMKTWALQILNAVDISLGAFHLEAIQTDTGPVFLEIAHRIGGARIAETLTLQTGIHPSILELGLLLDPDFKFELNYDTGYKYAWFIVPGHQLPGNYGLVSGHEFLYGKEEVVMLNQLTMQQPLVKAVTYKESEIPLAGLLKAKSAKELTDLIDRLFGQLQLISVDTPLPYSECMPQKKKHVLVIGNIRQPHKTLEAQGYAISWMYKKVPNFTHTTEDHNRCERILMYSNESAIQLISLARSIDQLQKIDSVVSFHDGAQLDALTIANALELPFSLSMGAIVNTRDKQLSRRILREKNLTEVQSAIAENEQDLHDFFKIYPQVNKVIVKPVAGTGSENVRSLESKELETANLDNVYPVLVEQFVEGREFSVEAFMQEGKCHIFAITEKFKDAQSFIETGHLVPARLSSDEHEKIAAFIAKVLPALGVVSGITHSEIMLGEKIELIETHTRVGGDRIFDLVQMTTGIDMYRLQALQSLGLPIGEDELTPKLNGKHACIKFKLNDHPGKKVIRVNGEEEIKNWSGVEDVSITHQAGEVLPQIVNSFDRSASVLVLCDSSEQALSIAEEAIQKLEFVVGEGHHHHHH | soluble
4 | MSLNILISGIHGFVGSNFIRALKDKHTLYGLDIVSPAKEGVVTTFSWQDFEPTSFPFQTLPQFDAIIHLAGKAHDTKKQSAAQSYFDINTGLTQKIFDFFLESSAKKFIFFSSVKAAADSVVGDVLTEDVIPTPVGPYGESKIKAEEYIKNHFMFPTSSISEDRSLRLEKEKGRIPKNKQVYILRPCMIHGPGNKGNLNLLYNVVKKGIPWPLGDFDNRRSFTSIDNLCYVIEGLLNQDVPTGIYHMGDDEALSTNELIGIMCEAMGKKPHIWKMNKRVMEGCAGLGTLMHLPLNTERLRKLTENYVVSNAKIKAALGIDKLPVTAKEGLMKTIRSFEETKEGHHHHHH | soluble
5 | MSLNKLEKEASVFFKKNQESVSQDFKKKVSSIEMFSTSLNSEENQSLDRLFLSETQNLSDEESYQEDVLSVKLLTSQIKAIQKQHVLLLGEKIYNARKILSKSCFSSTTFSSWLDLVFRTKSSAYNALAYYELFISLPSTTLQKEFQSIPYKSAYILAARKGDLKTKVSVIGKVCGMSNASAIRVMDQLLPSSRSKDNQRFFESDLEKNRQLSDLLVELLRIVCSGVFLSPYNENLLQQLFEVYKQKSEGHHHHHH | soluble
6 | MSLNLETPSQENLNFMLTEITTKLKMVNVGVFENLELDSVDYNALIDIYQLIKRKSNFSPREMQLFAEELRRIRKEGHHHHHH | soluble
7 | MSLNNVIFSQKLYDTAQMIVDGCMGDADPACQTACPMHTDVKQYVRMAGEGNFQGALDLIRSKLFLPQTLGRICAHPCEASCRRNTEFGQPISVAGIKRFVAEKMDNQDHWDLNIAPLTNKHIAIVGAGPAGAQAAIELRRQGHEVTIYEKLDVYGGMMRVGIPEYRLPRDVIDFEYSYLAMLGIKTQFGVEIGKDISFDTLRSEHDAVILAHGAHVGSIIPLPGHDNDGVFSAVEYLKEISETRQFPRACKRVMVIGGGDVAMDCARSSWRIGASDVYQCSLESLESLPASQIEIDESLEEGVEFNAGWGPVAIEHENGKVTGITIKKVLSIFDEQGNFAPQYSEESKTISVDTVVFATGQIVADITDGALEQTRGGRYVVDKQTLASSLEDVFVAGDACGGNIVIEAMALGRKAAMSVERFLTARPLTEDREGHHHHHH | soluble
8 | MSLNPAYFVLLVEELKTKYLVKDICQILQVPLSTYYRWKKKDFSQSSLEKKIGQLCKAYQFTYGYRKIAALMKQEEQVGINKVQRIMQKYQWQCQVKVKKKNRPGSAYYQTENHLNRNFQASQPLEKLTTDITYLYFGDCRLYLSSIMDLYNGEIVAYSIGEKQDTELVLDTLNQLSLPEGSLLHSDQGSVYTSYEYYQCCKKKNVIRSMSRKGTPADNAPIECFHSSLKCETFYHKTAYKYAKSIVIQIVKDYIKYYNEKRIQQKLGYQSPINFRKQAEGHHHHHH | not soluble
9 | MSLNQASLERNELHNTIWKVANELRGSVDGWDFKQYVLGILFYRYISENMTHYINKEERKRDPSFDYAKLSDEKAERGRKHLIEQKGFFIPPSALFCNALKNACHNEDLNVTLQNIFNEIEKSSLGTPSEENVKGLFADLDVNSNKLGSSHQNRVEKLTKILEAIGGMQLGDYLKSGIDVFGDAYEYLMAMYASNAGKSGGEFFTPQEVSELLAKITLHGQESVNKVYDPCCGSGSLLLQFSKVLGDKNVSKGYFGQEINLTTYNLCRINMFLHDINYSKFHIAHGDTLLDPKHEDDEPFDAIVSNPPYSTKWVGDSNPILINDERFSPAGVLAPKNAADLAFTMHMLSYLSNSGTAAIVEFPGVLYRGNAEAKIREYLVKENVIDCVIALPDNLFFGTSIATCILVLKKNEGHHHHHH | not soluble
10 | MSLNQIDRLLTIMQRLRDPENGCPWDKEQTFATIAPYTLEETYEVLDAIAREDFDDLRGELGDLLFQVVFYAQMAQEEGRFDFNDICAAISDKLERRHPHVFADSSAENSSEVLARWEQIKTEERAQKAQHSALDDIPRSLPALMRAQKIQKRCANVGFDWTTLGPVVDKVYEEIDEVMYEARQAVVDQAKLEEEMGDLLFATVNLARHLGTKAEIALQKANEKFERRFREVERIVAARGLEMTGVDLETMEEVWQQVKRQEIDLEGGSHHHHHH | soluble
11 | MSLNRIAFSAAHVVADPLAASDPWLEAAIDWDHTIAYRQRLWDLGLGVAEAMDTAQRGMGLDWPTSLDLIRRSVEAAKAHGPEALVFSGAGTDHLAPEAARSLDDVIRAYEEQVAAVEKVGGRIILMASRALARIGTSAADYETVYGRILSQVREPVIIHWLGDMFDPALAGYWGTRDLDAAMDTAVAIINAHAAKVDGVKISLLDKDKEIAMRRRLDPAVRMYTGDDFNYAELVAGDAQGYSHALLGIFDAIAPAASAALTALAAGDEAGFHDILAPTVPLSRHIFRAPTRFYKTGVVFMAYLNGHQDHFTMVGGQESARSTLHLAELFRLADRAGLLTDPDLAVQRMRAVLAVRGVEAEGHHHHHH | not soluble
12 | MSLNRIILIGNGFDLAHGLPTRYEDFINWYWEKRVDSFIGNLTPISEDCLCSIKITSDNYNRCWNVFAFCLPKFFNKPSGKEIIDSIANDSKSFELSLSPFFFNICTCIETKGWVDIEKEYYDLLRNAIINPDNCNYTISEINKQLHYIQGLLAQYLSSITTDNIKCNKEIQRQIYGNIRKDDVSISQLQVYYDYVDHLIQQDNVYQQLLCRYGYESSDRHFMAEDIKQLRKQFVGSSEIEEIYLKDLIFPENIVLLNFNYTEVADKYGCLKVASTNHIHGDLNNPDSIIFGYGDELDEDYRDFLKQSDNECLRNIKSIKYLESGKYRNLLQFIESAPYQVYIMGHSCGNSDRTLLNTLFEHKNCVSIKPYYYQKDDGSDNYLEIAQNICRNFTDMKLMRDRVVNKMFCEPLPQYIKEGHHHHHH | soluble
13 | MSLNRIILLDRDGVINTDSINYIKNVDELIIIPDSIIAIARLSAAGYKIGVATNQSGVSRGLYSEDDLSAIHCKLREVLAEAGGQIDALEYCIHLPEDNCFCRKPQPGMLKALAEKLNCSLDSVPFVGDRVSDIQAALAVGAQPIIVLSNMTDMSELAQYPKVPIYNSLLQYVNQLLLEGHHHHHH | soluble
14 | MSLNRKTPKTTDGLMRHIRDNKGIQINGSTEKNQLRNIGYFHGFKGYNFFLNKEEELNFEKFSELHALYSFDTEIKNLFYKHVMFCETAIKNRLLEIVCVNSGFDLDSLFQKSLTYYKSYSPGSSKYKKHLKNTTRLRRDIYDMIHEHCNSKPYIYHYIHQDRTVPLYAVFELFTLGNLVFFTRCMSQNLNIEAQKQLKLYSPAFDQSKDILGDIIDCMKGLRNAIAHNGVLYDCRFKTGETSNRLKEYLAVKMDIHNLDFDRIIDYLILLILICSGLSYSKAELQRIIRQFEQNLDFLRSKISESTYDKIIGVRARPKLRSLKNFINNLDFYLKTDEGHHHHHH | soluble
15 | MSLNSIQHIRKAEIHVHLEATIGPDLCRKFAKRNKVTLTDDIFGSQYAYAWDDFYDFIKKYDLVTSVIHTPEDYRELTYSYLKECAKNNVLYVEAMISSTHAKLKGMSYHSFLEGVAEGSKQAEDEFGIISKYIMNGIRHLGPESVQKTAEEVLEFPHKDLVGFGLAGDELHFPPKLFTKTFDMLKEANFPITVHAGEWDGPENIRHAINLLHPTRLGHGVRSIEDPDLVKEIIDKDIILETCPTSNIATKIYEDYKSHPVKTLFDQGVKVTVNSDDPPFFNATIQGEYKVMEDLGLNEKELTSLTHNAIKYSFCDEENKNELLAKLNEGHHHHHH | soluble
